{
  "source": "paper PMC3094495",
  "molecules": {"B1": {"name": "bacteriophage λ Cro, P03040 1-66 (natural protein)", "chain": "MEQRITLKDYAMRFGQTKTAKDLGVYQSAINKAIHAGRKIFLTINADGSVYAEEVKPFPSNKKTTA"}},
  "key": {"[1]": {"biological_target": "N15 Cro (Escherichia phage N15) (UniProt P03040)", "conditions": "cited from earlier work"}, "[2]": {"biological_target": "bacteriophage N15 Cro (bacteriophage N15)", "assay": "native MS"}, "[3]": {"biological_target": "λ Cro (Escherichia phage lambda) (UniProt P03040)", "conditions": "cited from earlier work"}, "[4]": {"biological_target": "T1, bacteriophage λ Cro (bacteriophage λ), P03040", "T1 chain": "B1 chain", "assay": "native MS", "conditions": "remark: other sources report otherwise"}},
  "data": [
    {"molecule": "N15 Cro (from UniProt P03040)", "values": [
      {"measurement": "Kd", "setting": "[1]", "result": 5, "unit": "µM"}
    ]},
    {"molecule": "bacteriophage N15 Cro (natural protein)", "values": [
      {"measurement": "stoichiometry N", "setting": "[2]", "result": 2}
    ]},
    {"molecule": "λ Cro (from UniProt P03040)", "values": [
      {"measurement": "Kd", "setting": "[3]", "result": 3000, "unit": "nM"}
    ]},
    {"molecule": "B1", "values": [
      {"measurement": "stoichiometry N", "setting": "[4]", "result": 2}
    ]}
  ]
}
